The text below walks through data of article PMC3535077.

The assay deals with His6-tagged monovalent streptavidin (UniProt P22629). Kind of assay: pull-down.

“C-terminal AviTag Dicer, biotinylated (from UniProt Q9UPY3 1-1922) (enzyme)” yielded a percent of the Dicer sample retained on the Ni column with His6-streptavidin of 60%.
